Values joined by “and” are separate entries in the source; they are usually repeats but may differ in a detail not shown here. Equal entries are not always repeated. Where two headings read alike, the source gives them in different places.
How the values were obtained:
C3b = C3b (UniProt P01024); experiment: SPR
C3b C3b (Homo sapiens) [1] = target: C3b C3b (Homo sapiens) (UniProt P01024); conditions: cited from earlier work
C3b C3b (Homo sapiens) [2] = target: C3b C3b (Homo sapiens) (UniProt P01024); conditions: cited from earlier work; remark: listed apart in the source

Chain of C3b C3b (Homo sapiens) (P01024 566-670): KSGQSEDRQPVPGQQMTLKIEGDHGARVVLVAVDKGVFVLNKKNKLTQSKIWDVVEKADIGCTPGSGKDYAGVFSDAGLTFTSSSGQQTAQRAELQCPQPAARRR

FHΔ10–15
KD1 (1:2 binding model, first of two independent sites) (C3b): 1.7 µM
KD2 (1:2 binding model, second of two independent sites) (C3b): 5.6 µM

Factor H (from UniProt P08603 19-1231) (natural protein)
Kd (C3b): 647 nM

Factor H CCPs 1-4 (from UniProt P08603)
Kd (C3b C3b (Homo sapiens) [1]): 11 µM and 14 µM

Factor H CCPs 19-20 (from UniProt P08603)
Kd (C3b C3b (Homo sapiens) [2]): 5.4 µM and 4 µM

Factor H-like protein 1 (natural protein)
Kd (C3b): 1520 nM

— PMC4707092
